Measured values reported in the DeepSol protein solubility set.

Assay: soluble on expression in E. coli; label from the status in PepcDB or PDB records

Sequence | soluble on expression in E. coli
TPLSQSSSSKNASDVSGSIQPVDSKSGLQMLFSGYRGIGGVQTLDLQQMSSDIPNAETKTVADQVINAWKQMKYTPFGRSTGSFTIRLNPEHLGFVTIKLTNENGMFQSKIIASSQSAKELLEQHLPQLKQSLPNMAVQIDRFTLPVQS | not soluble
MAHHHHHHMSSHALSSGSAPNVSSATTGTVAQQADSLTRNLLLGIPKEGLSPDSPEAADLQAAEAFVSDIQQEILAYDIANAKAIELYAVRWWSAVPFFGRHAKRALAAESTAAAAAAAGETHESTEAAAAAVAVDGSANSSEGHGLRLSPEEAAAALQSGGAYLHRQTSQTPRGFKVERTSALDPGQLSQLAGGASGASESKAVPVPKVNTWLFRRQHPSWVPLMQRWWVPWLCCGSIVLIWTPDVWKLRTLYFCDHQYALLRQSIHKAYWWATMRPEDYAEHIAAIAAERPSRVRGTSCPFE | not soluble
ALSGECADEIFGGYPWFMRKEMIYANTFPWSRFVNERISLLSDDLKSINLQEYVDARYKENLNNVPVSDEDSPYAKRMRELFYLNIKWFMITLLTRKDRMSMANSLEVRVPFADYRLVEYAFNIPPEIKFLNGREKGILRKAFEGVLPQDVIERKKSPYPKTFDPRYTALVQKWLKKVVEDKTSPILDIIDLKTVNELIETGGSSYKTPWFGQLMKGPQLIAYLLQVNFWLKEY | not soluble
MGSDKIHHHHHHMSETEPTSEQPHIAITGGAGYIGSRVIYELQQAHPDWEITAIDNFYLGTVQSVGDVDIEHVDIRNRDRLEAALDGADVVMHLAAVSGVDDCEEKQDLAYEVNVQGTDNVAWFCRKTGAALIFPFSMAVIGDPQEFPITVDHPRDPLNWYGRTKLLNERDVETYADGAFPAHQFMISNLYGSHEIDGQTVSKGTVINFFVNRALAGETLTVYEPGTQSRNFIHVKDVARAYVDSCERLLEQLDRGETGVEKYEIASDEDPSVHTVAKLVRDIAADIADIDADVELVENPRGDDETLVDSFTVDTGRTTAALGWTPEHDVESAIRTALESANT | not soluble
MVNSSKSILIHAQNKNGTHEEEQYLFAVNNTKAEYPRDKTIHQLFEEQVSKRPNNVAIVCENEQLTYHELNVKANQLARIFIEKGIGKDTLVGIMMEKSIDLFIGILAVLKAGGAYVPIDIEYPKERIQYILDDSQARMLLTQKHLVHLIHNIQFNGQVEIFEEDTIKIREGTNLHVPSKSTDLAYVIYTSGTTGNPKGTMLEHKGISNLKVFFENSLNVTEKDRIGQFASISFDASVWEMFMALLTGASLYIILKDTINDFVKFEQYINQKEITVITLPPTYVVHLDPERILSIQTLITAGSATSPSLVNKWKEKVTYINAYGPTETTICATTWVATKETIGHSVPIGAPIQNTQIYIVDENLQLKSVGEAGELCIGGEGLARGYWKRPELTSQKFVDNPFVPGEKLYKTGDQARWLSDGNIEYLGRIDNQVKIRGHRVELEEVESILLKHMYISETAVSVHKDHQEQPYLCAYFVSEKHIPLEQLRQFSSEELPTYMIPSYFIQLDKMPLTSNGKIDRKQLPEPDLTFGMRVDYEAPRNEIEETLVTIWQDVLGSHHHHHH | soluble
MSLSYRIDVLLFNKFETLDVFGPVEIFGNLQDDFELNFISSDGGLVESSQKVRVETSLYTRDENIEKILFVPGGSGTREKVNDDNFINFIGNMVKESKYIISVCTGSALLSKAGILNGKRATTNKRSFKWVTEQNEDVLWVKEARWVKDGNIYTSSGVSAGIDMTLGFIEDLIGKEKALEISRSIEYFWNEDSNYDPFSKIYGEGHHHHHH | soluble
MHELFHPIFANGEEKAALQQLIIALDASGKRYFLRNEILHTFSQYCQQAQKPTYFYYSSSVGKLIQYTHEIVLAEDGTWFVVRPRIASQEVWRLTSDLAKFDSMSIDAFLDVSDRLVNAYEPNILEIDLNSFYEASPSISDPRNIGQGLAFLNRYLCSQIATDPQYWVELVYLALRGLQYDGINLMIGDAIPSGIHLAKQIHAAIKFLSALPPEEPYEKFYIELQKLGFEPGWGNTAQRILETITLLDKLIDSPQPAVLEAFVARVPAVFRVVLVSIHGWVAQEDVMGRDETLGQVIYVLEQARSLENKLQQEIKLAGLEVLGIQPHVIILTRLIPNCEGTYCNLRLEKLHNTENAWILRVPFGEFNPEITNNWISKFEIWPYLETFALDAEKQLLAQFQGKPNLIIGNYSDGNLVAFLLARRLKVTHCNIAHSLEKPKNLFSNLYWQDSEEKYHFSVQFTADLITMNAADFIITSSYQEIFGTPESIGQYESYKFFTMPHLYHVVDGIDLFNPKFNMVPPGVNEQVFFPYSQTADRDPNVSKHVHDLLEHHHHHH | not soluble
MALTVAKSALEAIREKGLGGFMRMIREEGFMRCLPDGNLLQTKIHNIGATLVGVDKFGNKYYQKLGDTQYGRHRWVEYASKDRYNASQVPAEWHGWLHFITDHTGDELLSLKPKRYGLEHKENFSGEGDAYIYHSKGHTLNPGQKNWTRYQSWVPTKTQ | not soluble
MLLTGKLYKEEKQKFYDAQNGKCLICQRELNPDVQANHLDHDHELNGPKAGKVRGLLCNLCDAAEGQMKHKFNRSGLKGQGVDYLEWLENLLTYLKSDYTQNNIHPNFVGDKSKEFSRLGKEEMMAEMLQRGFEYNESDTKTQLIASFKKQLRKSLK | soluble
MSLASTIMSQEVSWTDILEKHPALRWIKPIPEDWEIFPKHLCAFESFLYVAVGQEVRSLDCRLLKHKNEASHKNFYKKLFNPELDFMIEQICLSKNGRFLAVVGKSKIVILGLRSKLSEQNPLAESVSNFGESVNNFSNSEHQENGTNSLKLSEVTICSVAVINPSSQIVSVRFHPLGKSGRSLVVLTETSLLLYEAGNGVLMPDYEIPLKLTHQASNSFDADVDLHIPTAFCFSNVSQGWGVFTIYILTRGGDVFSVCPVMPANAMIPQDVLKQIRLILTKKEDDADAENHRRNVHWITKLLGEAALANDLSTSEGHHHHHH | soluble
MGSDKIHHHHHHMNADIKISFIDNIDKISASDWQNLNNSPCPFLRYNFFNALEKSESASAKQGWQAHHLVATNNNDVTAVMPMYLKSHSWGEYVFDWDWADAFKRNDIDYYPKLVATIPFTPVSSDKLLTSQGHVNELFEPLIEHCQQENINSWHILYCNEIRTALPEDVYQRNTVQFHWFNRDYETFDDFLNTFTSRKRKNTRKERLSIIEQEIDIRQLKNNEISQQDLEFFYLTYQLTYLKRGHQPHLSYEFFKQIVADMADNILLIIASHEQEDIACALFFYDDSQLYGRYWGCTKHYNNLHFELCYYRGIEFCIQNKLQSFNPGTQGEHKIQRGFEPVLTYSYHWVKHVPFRMAIKNFCQQEQQHMLTYQEQCQQVLPFRKI | not soluble
MRSIPLCQLLLLLTILSIDARPSDHFLSFSKTELCAAEPHLKVCQPNSRAQSSKIINGDGLTAERLEQLSKHSNKGFIEEEANSGRSSAASNVDDPFEDVATRAPPSSNEYEEERYSHRKHKHHHRKSHRGHHYGSPYQQYYQQQQHHDPLTYRVYPGLHPKDGRYCSDMKGMFAYTCAPSKPLRIDLVEFCKDYAAFCNVPNFHRLPGPRMGPPLTDKGVGHVDVNGHFGFGVGAVPGLEVGVGWGVDVGPIPGMGESVGVGVGLDLGIMGSKTPEAFRRGQDDPNAKGGGIVGINGGVGVKAPGTGDGVGVGTGLGVGK | not soluble
MGHHHHHHSHMSYKPNLAAHMPAAALNAAGSVHSPSTSMATSSQYRQLLSDYGPPSLGYTQGTGNSQVPQSKYAELLAIIEELGKEIRPTYAGSKSAMERLKRGIIHARGLVRECLAETERNARS | soluble
MSLWKSMTYYQKMIQEPSREKLLPDPLKYPYVQPPYTLVLEMKDVLVHPDWTYQTGWRFKKRPGVDKFLETLAANYEIVVFTADQGMTVFPILDALDPRGYIMYRLVRDATHFVDGHHVKNLDNLNRDLSKVIVVDWDPNSTKLHPENTLNIPRWTGNDDDAGLFDLMAMLVTIATSEVEDVRDVMTYYKSFENPLVKFRENQRLLAEQMAEREHEEKQRNLPAVQRWRPSFLEGHHHHHH | soluble
MKIVILAPTITPIVSYGGLGDVMRDLPKFLKKGNEVVVLTLNHYNRYFTLPYEDIKKITVIYKGAKITFDVLRTKHPTTGVDLIVFSNESVNNLNVWDPIKYEIFADLVITYLDEVKDIDVVSGHDWMCGLAIAKCNDILDLPTTLTIHNEAFKGEMIEYKGEVMTFLELGIKYADAVNTVSPSHAEEIKNYPYIKKYLNNKPFCGILNGIDIDEYDPMKIIERMCNLSNNKLDPRNYAYISPYSAEDSHNIKPKIKYSWFYRGGVYEYVEDWNKIDKGISATDVEVHGGVDGDIETPLIGFVGRATHQKGFNTMFEAIPELLEKHDIRFVFLTKGDRDIEERLKNLANEHDGRILALIGYSLPLSSLVFAGSDWIIMPSYWEPCGLVQMEAMAYCTPVIATETGGLKDTIIPLHPNPYEHPNFDKATGVLFKVPDKVGFMWGVEHALNWTFYKLNEICMFMQYIRYKCPKHPYDENSPLSMMMKNCYYHVFRNLSWQNSPSIRKYKGLFGGAIYNHYLQP | soluble
MGSDKIHHHHHHEGNATTTSYFLNDQQAIDAIDGLYERFHQEGCYGRELFWEQGAACDIVWGRTRGYNSLATLAYTGDESPLRDVFSRMYSTMSRANWIIQELVKKEKGTTLTAVEKRSLGEAYFSRGWAHYLIAYRYGTDKQGVPFVRYEDFPDDYDNSIPPQQATVMDNYKLIIEDMDKAIAYLPIFESYDADNRGRAHQAAAVAFKAKTYAYWATWDATQWNNVIEMVNQLENNYNRDLAPTFAELFSSDLKDYWNAEYLWTIPSIGGALPGGTEFPGIILENKGWGKYNGWGQMKPSYDIYEEMAKDGKGNDRLVRSILEYNQEFPFFGETRKFWSTSDLEAGFMINKYMDAFKYSDPVGEGAVSANGDWPTVRVNFPIIRFAEMLLFRAEAYLMTGQADKATADINRIRLRSNLTPLTGTATMKDLYHERRCELAFEFTDHLFDLKRWNRSSNADIKTLADKELNAHPRIRRYEDRANPESAFTIIGYEDYTNKNAYQAHMMVFPYPSEEITKSNGQLKQNEGY | not soluble
MSKLLYLVAVDGGEWGERAADRAIHLAEKTHAKVKLVTVIDWPYIHPMIIEGAAAPLLDKEAEEMTVKAKVITPLVEKYNTLSLNITTELLWGDPAVILKEQVEVTNADMIFVGRQGRSSVVDTLFGSVANKLAHSVSVPIVLVP | not soluble
IVMQFPREEYFAPGHRGCAGCGAAIVARLLLKVAGKDTIITNATGCLEVMTTPYPETSWRVPWIHTAFENAAATASGIEAAVKALKRKRGKFADKKINVIAIGGDGGTADIGFQALSGAMERGHDILYIMYDNEAYMNTGIQRSSSTPFMAATTTSPAGSKIRGEDRPKKDMTMIMAAHGIPYVATACISYPEDFMRKVKKALSIEGPKFIQVLQPCTTGWGYPPEKTIEIGRLAVETGIFPLYEIENGEFRITYKPAKRKPVREYLKMQKRYRHLTDEDIERIQKYIDEKCKLLGL | not soluble
